Biological target: Torpedo californica nicotinic acetylcholine receptor (Torpedo californica) (UniProt P02710)
Assay: SEC

With “Torpedo californica nicotinic acetylcholine receptor (from UniProt P02710 25-461; P02712 25-493; P02714 18-506; P02718 22-522) (complex)” the percent dimer was 72.7%.
